Assay results from patent publication US20230002480A1.

Key:
[1] = target: HIV-1 93TH057 gp120 coree (HIV-1); assay: PDB 5te6 structure, PISA interface
[2] = target: HIV-1 93TH057 gp120 coree (HIV-1); assay: PDB 3ngb structure, PISA interface
[3] = target: monomeric HIV-1 Ba-L gp120 (HIV-1 Ba-L); assay: retention on gp120 affinity column

Substance: N6 Fab
- Ratio of OD/ID buried surface area [1]: 7.58
- buried surface area, CDR H1 [1]: 38 Å^2
- buried surface area, CDR H2 [1]: 621 Å^2
- buried surface area, CDR L1 [1]: 43 Å^2
- buried surface area, CDR L2 [1]: 0 Å^2
- buried surface area, CDR L3 [1]: 172 Å^2
- buried surface area, CDRH3 [1]: 123 Å^2
- buried surface area, Fab heavy and light chain total [1]: 1180 Å^2
- buried surface area, Fab heavy chain total [1]: 928 Å^2
- buried surface area, Fab light chain total [1]: 251 Å^2
- buried surface area, gp120 CD4 binding loop of OD [1]: 206 Å^2
- buried surface area, gp120 Loop D of OD [1]: 332 Å^2
- buried surface area, gp120 Loop V5 of OD [1]: 339 Å^2
- buried surface area, gp120 inner domain (ID) [1]: 132 Å^2
- buried surface area, gp120 outer domain (OD) [1]: 1000 Å^2
- buried surface area, gp120 total [1]: 1130 Å^2
- buried surface area, heavy chain FWR [1]: 146 Å^2
- buried surface area, light chain FWR [1]: 36 Å^2

Substance: VRC01 Fab
- Ratio of OD/ID buried surface area [2]: 9.68
- buried surface area, CDR H1 [2]: 3 Å^2
- buried surface area, CDR H2 [2]: 598 Å^2
- buried surface area, CDR L1 [2]: 50 Å^2
- buried surface area, CDR L2 [2]: 0 Å^2
- buried surface area, CDR L3 [2]: 132 Å^2
- buried surface area, CDRH3 [2]: 160 Å^2
- buried surface area, Fab heavy and light chain total [2]: 1200 Å^2
- buried surface area, Fab heavy chain total [2]: 897 Å^2
- buried surface area, Fab light chain total [2]: 306 Å^2
- buried surface area, gp120 CD4 binding loop of OD [2]: 188 Å^2
- buried surface area, gp120 Loop D of OD [2]: 322 Å^2
- buried surface area, gp120 Loop V5 of OD [2]: 301 Å^2
- buried surface area, gp120 inner domain (ID) [2]: 107 Å^2
- buried surface area, gp120 outer domain (OD) [2]: 1040 Å^2
- buried surface area, gp120 total [2]: 1140 Å^2
- buried surface area, heavy chain FWR [2]: 136 Å^2
- buried surface area, light chain FWR [2]: 124 Å^2

Substance: Synagis (antibody)
- recovery from gp120 affinity column [3]: < 1%
